Measured values published in the supplement of paper PMC10126150.
± gives the standard deviation of the averaged measurements.

system: ATP; assay: switch fluorescence ratio, 500 uM ATP over buffer (Cy3 cluster intensity, sum of 5 cycles each) (fold (ratio)); higher = stronger signal-on switching upon ATP binding; sequences stand for … in TCGTCGGCAGCGTCAGATGTGTATAAGAGACAGTTTTTTTTTTTTTTTTTTTTTTTTT…TC; settings: aptamer strand: ATP DNA aptamer (quencher-CACCTGGGGGAGTATTGCGGAGGAAGG + anchor), 100 nM annealed; ATP concentration: 500 uM
Summary of the method: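 Per cluster, summed Cy3 intensity from the target cycles was divided by that from the buffer cycles to give the fluorescence ratio, then averaged per switch-domain sequence. Clusters outside 100-1000 RFU were excluded. The Cy3-labelled switching-strand clusters, on a modified Illumina MiSeq flow-cell, were annealed to 100 nM quencher-labelled ATP aptamer and imaged in selection buffer, then after 15 min with 500 uM ATP at 22 °C, for five cycles with NaOH stripping and re-annealing between them.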
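Further: ATP exposure 15 min at 22 °C before imaging.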

Sequence | switch fluorescence ratio
CGGGACAGGG | 1 ± 0.013
CGGGACGCGT | 1.021 ± 0.0039
CGGGACGGCA | 1.01 ± 0.017
CGGGAGAACC | 0.9981 ± 0.0082
CGGGAGAGAG | 1.03 ± 0.014
CGGGAGGTA | 1.0174 ± 1.4e-06
CGGGAGTGTC | 0.89727 ± 0.00075
CGGGATGCCT | 1 ± 0.021
CGGGATGGCT | 0.996 ± 0.011
CGGGCAGATG | 0.983 ± 0.028
CGGGCCACGC | 1.04 ± 0.019
CGGGCCTATT | 0.98938 ± 0.00074
CGGGCTCCGC | 1.21 ± 0.099
CGGGCTCTGG | 1.02 ± 0.0016
CGGGCTGGGG | 0.993 ± 0.039
CGGGCTTCCT | 1.21 ± 0.22
CGGGCTTGTG | 1 ± 0.011
CGGGGAAACA | 0.9943 ± 0.0077
CGGGGAAGGG | 1.005 ± 0.0032
CGGGGAAGTC | 1.02 ± 0.044
CGGGGACGGG | 1.02 ± 0.013
CGGGGACTTG | 0.987 ± 0.029
CGGGGAGAC | 1.02 ± 0.062
CGGGGAGACG | 0.929 ± 0.13
CGGGGAGCCA | 1.001 ± 0.01

Sequence | switch fluorescence ratio
CGGGGAGGAG | 1.02 ± 0.056
CGGGGATACG | 1.01 ± 0.048
CGGGGATGTT | 0.999 ± 0.035
CGGGGATTCC | 1.06 ± 0.031
CGGGGATTCG | 0.996 ± 0.026
CGGGGCAGGT | 1.01 ± 0.021
CGGGGCCGGG | 0.996 ± 0.017
CGGGGCGGTC | 0.96 ± 0.047
CGGGGCGGTT | 1 ± 0.032
CGGGGGAGAA | 1 ± 0.034
CGGGGGAGCG | 1 ± 0.045
CGGGGGAGGG | 1.16 ± 0.45
CGGGGGATTG | 0.988 ± 0.014
CGGGGGCATG | 1.013 ± 0.0094
CGGGGGCGAA | 0.996 ± 0.05
CGGGGGGAAA | 1 ± 0.02
CGGGGGGACA | 0.968 ± 0.041
CGGGGGGCTG | 0.995 ± 0.04
CGGGGGGGA | 1.0242 ± 0.00033
CGGGGGGGCG | 1.03 ± 0.074
CGGGGGGGCT | 0.997 ± 0.026
CGGGGGGGTA | 1 ± 0.027
CGGGGGGTAA | 1.01 ± 0.029
CGGGGGTAG | 0.9982 ± 0.0021
CGGGGGTGCA | 1 ± 0.0011

Sequence | switch fluorescence ratio
CGGGGGTGG | 1.02 ± 0.062
CGGGGGTTCT | 1.006 ± 0.0032
CGGGGGTTGA | 1.03 ± 0.03
CGGGGTAATC | 1.03 ± 0.047
CGGGGTAGCT | 0.989 ± 0.035
CGGGGTCGGA | 0.999 ± 0.035
CGGGGTCTGA | 0.953 ± 0.028
CGGGGTGCTG | 1.03 ± 0.03
CGGGGTTCCG | 0.9532 ± 0.0064
CGGGGTTCGG | 0.996 ± 0.023
CGGGGTTGGC | 1.02 ± 0.061
CGGGGTTTT | 0.999 ± 0.046
CGGGTAACGG | 1.035 ± 0.0014
CGGGTAATGG | 1.03 ± 0.07
CGGGTAATGT | 0.978 ± 0.029
CGGGTAATTT | 1.03 ± 0.019
CGGGTACATG | 1.03 ± 0.048
CGGGTAGTAC | 1.19 ± 0.03
CGGGTATAGC | 0.996 ± 0.05
CGGGTATGCT | 0.959 ± 0.025
CGGGTATGGA | 1.02 ± 0.033
CGGGTATGTA | 1 ± 0.0022
CGGGTCCATT | 0.981 ± 0.0079
CGGGTCTGTG | 0.999 ± 0.018
CGGGTGAATT | 1.01 ± 0.071

Sequence | switch fluorescence ratio
CGGGTGACGA | 1.03 ± 0.04
CGGGTGAGCA | 0.996 ± 0.026
CGGGTGAGGT | 1 ± 0.027
CGGGTGGGTC | 1.29 ± 0.51
CGGGTGGTCG | 0.8742 ± 0.0063
CGGGTGTTTT | 1.055 ± 0.0089
CGGGTTACGA | 1.02 ± 0.028
CGGGTTATGT | 0.992 ± 0.044
CGGGTTCAT | 1.01 ± 0.028
CGGGTTCGCC | 0.981 ± 0.012
CGGGTTGCAT | 1.023 ± 0.0087
CGGGTTGGGG | 1 ± 0.016
CGGGTTGGTC | 1.05 ± 0.041
CGGGTTTGGG | 0.983 ± 0.016
CGGTAAATGT | 1.05 ± 0.071
CGGTAACTGG | 1.01 ± 0.048
CGGTACGAAT | 1.034 ± 0.0096
CGGTAGCGCC | 0.99 ± 0.06
CGGTAGGGGG | 1.02 ± 0.049
CGGTAGTCAG | 0.9983 ± 0.008
CGGTAGTTTT | 0.99 ± 0.014
CGGTATAAGG | 0.982 ± 0.046
CGGTATGATC | 1.02 ± 0.022
CGGTATGGGG | 1 ± 0.029
CGGTATGTG | 1.01 ± 0.036

Sequence | switch fluorescence ratio
CGGTATTGTG | 0.968 ± 0.028
CGGTCCGGCG | 1.012 ± 0.0011
CGGTCCTTGG | 0.99 ± 0.014
CGGTCGATCC | 1 ± 0.023
CGGTCTAGGG | 0.995 ± 0.019
CGGTCTGGGG | 0.981 ± 0.027
CGGTCTTACT | 1.02 ± 0.02
CGGTGAATAC | 2.67 ± 0.064
CGGTGACGTT | 1.01 ± 0.028
CGGTGAGGAC | 0.98264 ± 0.00074
CGGTGATTGA | 1.004 ± 0.0023
CGGTGCGACG | 0.958 ± 0.041
CGGTGCTATG | 1 ± 0.015
CGGTGGCTGG | 0.972 ± 0.036
CGGTGGCTTC | 1.003 ± 0.0026
CGGTGGGTGC | 0.997 ± 0.038
CGGTGGTGAT | 1.009 ± 0.0059
CGGTGGTTGG | 1 ± 0.029
CGGTGTAGAG | 0.996 ± 0.0093
CGGTGTCTCA | 1.0117 ± 0.00057
CGGTGTGGGG | 1.01 ± 0.032
CGGTTAGACG | 0.977 ± 0.008
CGGTTAGGAT | 0.994 ± 0.0078
CGGTTATGTA | 0.989 ± 0.034
CGGTTATTAG | 0.9897 ± 0.0066

Sequence | switch fluorescence ratio
CGGTTCGGGT | 0.993 ± 0.013
CGGTTGATCG | 0.918 ± 0.036
CGGTTGCTTA | 0.987 ± 0.012
CGGTTGGGAG | 1.019 ± 0.0064
CGGTTGGTAT | 0.969 ± 0.051
CGGTTGTAAA | 1.02 ± 0.013
CGGTTGTAAT | 1.03 ± 0.041
CGGTTGTTTG | 0.974 ± 0.015
CGGTTTAGGG | 0.986 ± 0.026
CGGTTTATAT | 0.99 ± 0.013
CGGTTTCAAG | 0.972 ± 0.042
CGGTTTCCTC | 1.11 ± 0.074
CGGTTTGGCT | 1.08 ± 0.12
CGGTTTTAAT | 0.99589 ± 0.00077
CGGTTTTAGG | 1.0066 ± 0.00065
CGGTTTTTAC | 1.08 ± 0.041
CGGTTTTTTA | 0.964 ± 0.025
CGTAAACTTG | 1.02 ± 0.023
CGTAAATATA | 1.03 ± 0.015
CGTAAGAGCT | 1 ± 0.016
CGTAATCATC | 1.13 ± 0.023
CGTAATTTCA | 1.02 ± 0.013
CGTACACGTT | 1.02 ± 0.051
CGTACATTTA | 1.03 ± 0.051
CGTACCAACC | 1.2 ± 0.029

Sequence | switch fluorescence ratio
CGTACCTGCG | 1.06 ± 0.042
CGTACGGACC | 1.26 ± 0.046
CGTACGGGTT | 0.9959 ± 0.0039
CGTACTAAAA | 1.06 ± 0.036
CGTAGAATGC | 1.44 ± 0.082
CGTAGAGCGG | 1 ± 0.074
CGTAGGATTG | 1.02 ± 0.03
CGTAGGGCAG | 0.991 ± 0.049
CGTAGGGGGG | 0.986 ± 0.03
CGTAGGGGTG | 0.969 ± 0.014
CGTAGGGTTG | 0.974 ± 0.057
CGTAGTAGTG | 0.993 ± 0.027
CGTAGTTCGA | 1.02 ± 0.018
CGTATAACTC | 1.11 ± 0.014
CGTATGCCGA | 0.961 ± 0.016
CGTATGGATA | 0.998 ± 0.028
CGTATGTTGG | 1.04 ± 0.012
CGTATTCATA | 0.977 ± 0.037
CGTATTTAGA | 0.99 ± 0.064
CGTATTTCTG | 0.938 ± 0.072
CGTATTTTTA | 1 ± 0.089
CGTCAAGGTG | 1.42 ± 0.24
CGTCAGCACT | 1.79 ± 0.04
CGTCATTAAA | 0.984 ± 0.023
CGTCATTCGC | 1.05 ± 0.16

Sequence | switch fluorescence ratio
CGTCATTTAT | 1 ± 0.06
CGTCCATATG | 1.016 ± 0.0089
CGTCCTGGCT | 1.02 ± 0.07
CGTCCTGGGT | 0.995 ± 0.011
CGTCGATAAT | 1.03 ± 0.035
CGTCGGCGCC | 1.09 ± 0.12
CGTCGGTTAG | 1.01 ± 0.015
CGTCGTAGTG | 0.989 ± 0.016
CGTCTTCCTG | 1 ± 0.056
CGTCTTGCCC | 0.9853 ± 0.0052
CGTGAAAGCA | 1.02 ± 0.067
CGTGAAAGTG | 0.991 ± 0.019
CGTGAAATCG | 1.02 ± 0.019
CGTGAAATGT | 0.9863 ± 0.0075
CGTGAAGATG | 0.9674 ± 0.0068
CGTGAAGGTG | 1.24 ± 0.074
CGTGACCTTT | 1.02 ± 0.048
CGTGACGGTT | 1.03 ± 0.062
CGTGACTCTA | 1.03 ± 0.046
CGTGACTGGT | 0.9683 ± 0.005
CGTGAGAGCA | 1.01 ± 0.035
CGTGAGCTAG | 1.03 ± 0.029
CGTGAGCTTG | 1.0004 ± 4.9e-05
CGTGATGTTT | 1 ± 0.047
CGTGATTATA | 0.992 ± 0.0072
